± gives the standard deviation.
Test: protein stability index of a GFP-peptide fusion (GPS, HEK-293T) (PSI 1-6); higher = more stable
[1] = treatment: DMSO, c terminus: a fixed tail appended
[2] = treatment: MLN4924 1 uM, 8 h, c terminus: a fixed tail appended
[3] = treatment: DMSO, c terminus: native
[4] = treatment: MLN4924 1 uM, 8 h, c terminus: native
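Also: 24-mer peptide tiles fused after GFP, lentivirally expressed, FACS-sorted into six equal bins by GFP/DsRed ratio, decoded by Illumina sequencing, PSI is the read-weighted mean bin number.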

| Sequence | protein stability index [1] | protein stability index [2] | protein stability index [3] | protein stability index [4] |
| --- | --- | --- | --- | --- |
| WDPSPRGCFTLPRSEPIRPIDPAA [DVL3] | 3.98 ± 0.23 | 3.77 ± 0.073 | – | – |
| RQKDLKFLSEEEYWKLQIFFTNVI [CCNC] | 2.57 ± 0.25 | 2.47 ± 0.83 | – | – |
| ALGAPSKSPSSPQAAFTQQGMEGI [TBX5] | 4.59 ± 0.37 | 4.51 ± 0.19 | – | – |
| RSLNVFVKDDDRLTFHRHPVAQST [SPSB4] | 3.51 ± 0.3 | 3.62 ± 0.29 | – | – |
| SPHEMLQAVVLCSKKTFQITKQGD [USP39] | 3.34 ± 0.39 | 3.4 ± 0.28 | – | – |
| LSLIARFSPIAIDGMSGLAGVGLS [ELAVL3] | 2.7 ± 0.73 | 2.48 ± 0.42 | – | – |
| PVGEPVTNVRLQPAATWNLEEKRL [FCHO1] | 4.52 ± 0.27 | 4.63 ± 0.24 | – | – |
| ESPSLTSTPVCSQKVVVTTPLHRD [MYBL2] | 4.83 ± 0.2 | 4.5 ± 0.11 | – | – |
| LKGAFPARLKKVLIVGAPIWFRVP [PTPN9] | 2.96 ± 0.7 | 2.84 ± 0.5 | – | – |
| SFGACLREETPRMPSWASARDRQP [ELOA2] | 3.4 ± 0.34 | 3.13 ± 0.32 | – | – |
| AVCMFLASKLKETSPLTAEKLCIY [CCND2] | 2.84 ± 0.61 | 2.44 ± 0.56 | – | – |
| PPKQAQKEQRKQMKGRGQLEKPPA [TBC1D10A] | 5.26 ± 0.18 | 5.29 ± 0.21 | – | – |
| LTCDSAQKCHSIGETDEVTKTEDR [ZSCAN9] | 5.27 ± 0.34 | 5.59 ± 0.13 | – | – |
| TGSPARLSLRQTGSPGMIYSTRYG [KCNAB2] | 3.15 ± 0.45 | 3.12 ± 0.45 | – | – |
| PQERTLTLVDTGIGMTKADLINNL [HSP90AB1] | 3.49 ± 0.33 | 3.67 ± 0.26 | – | – |
| KENSHQVKEELSQKFDTLYAILDE [TRIM63] | 4.77 ± 0.27 | 4.57 ± 0.18 | – | – |
| DPLNICVFILLLVFIVVKCFTSE [RTP4] | – | – | 2.93 ± 0.24 | 2.89 ± 0.098 |
| ARLKKVLIVGAPIWFRVPYSIISL [PTPN9] | 3.32 ± 0.79 | 2.58 ± 1 | – | – |

| Sequence | protein stability index [1] | protein stability index [2] | protein stability index [3] | protein stability index [4] |
| --- | --- | --- | --- | --- |
| AKIEVEKLKAIRLRHDLPEYNSL [RAD54B] | – | – | 3.62 ± 0.21 | 3.81 ± 0.2 |
| EQKLRACLEGSINEHSAHCPHTPE [RPAIN] | 4.92 ± 0.28 | 4.99 ± 0.23 | – | – |
| RGDIFERIVHLQETCDLGKIKPEA [NLN] | 3.59 ± 0.37 | 3.6 ± 0.29 | – | – |
| FRNCGACVTLMQGHEGSVSSCHFA [WDR88] | 2.85 ± 0.62 | 2.59 ± 0.37 | – | – |
| IQVLPKLSSSIIHEIDSILGNKPY [KCNAB2] | 1.98 ± 0.27 | 2.28 ± 0.27 | – | – |
| PNDEHWKALSRKSTSFRVYIMAFD [FBXO33] | 2.11 ± 0.52 | 2.27 ± 0.45 | – | – |
| FVENGHSESSGQTHLEGDTVQIIC [CFHR2] | 3.21 ± 0.38 | 3.67 ± 0.37 | – | – |
| NHLLESMPLREGSSFQDLLGDALA [HES6] | 3.34 ± 0.31 | 3.4 ± 0.31 | – | – |
| ELKLEQQEAAERESKLLRDLSAAN [LRRC45] | 4.62 ± 0.18 | 4.77 ± 0.23 | – | – |
| ANGEVTYSFRKLPDTQLLKFQLNK [PCDHGA10] | 2.83 ± 0.33 | 2.85 ± 0.24 | – | – |
| VTPKKSPPPKTNLTPGQSDSAKRE [FAN1] | 5.22 ± 0.33 | 5.35 ± 0.33 | – | – |
| PVVSAVWGHCEVTMRYINGLDPEP [SPSB4] | 2.28 ± 0.23 | 2.54 ± 0.53 | – | – |
| DQERIKVERKRLRNRLAATKCRKR [JUNB] | 4.83 ± 0.19 | 4.53 ± 0.17 | – | – |
| PDHQVPYGHDYPRAAYQQVIQPAL [TRAF3IP2] | 3.48 ± 0.29 | 3.56 ± 0.24 | – | – |
| MAERLEDSVLKGMQAASSKMVSAE [SDE2] | 4.54 ± 0.36 | 4.55 ± 0.24 | – | – |
| RAGEGFIICYSITDRRSFHEVREF [RIT1] | 3.04 ± 0.81 | 2.48 ± 0.71 | – | – |
| GLGHGSTSRGGPWVGTGLAAALAG [CPOX] | 3.17 ± 0.21 | 3.21 ± 0.29 | – | – |
| MLNEPLVREIVKECSNIPLSQPQQ [GAN] | 3.85 ± 0.2 | 3.95 ± 0.077 | – | – |

Source: the supplement of paper PMC10567573
